The record followed here is publication PMC4780704, “A Parallel G Quadruplex-Binding Protein Regulates the Boundaries of DNA Elimination Events of Tetrahymena thermophila”.

Data set [1] deals with T1, His-Lia3 (Tetrahymena thermophila, UniProt A3F815 1-322).
T1 sequence: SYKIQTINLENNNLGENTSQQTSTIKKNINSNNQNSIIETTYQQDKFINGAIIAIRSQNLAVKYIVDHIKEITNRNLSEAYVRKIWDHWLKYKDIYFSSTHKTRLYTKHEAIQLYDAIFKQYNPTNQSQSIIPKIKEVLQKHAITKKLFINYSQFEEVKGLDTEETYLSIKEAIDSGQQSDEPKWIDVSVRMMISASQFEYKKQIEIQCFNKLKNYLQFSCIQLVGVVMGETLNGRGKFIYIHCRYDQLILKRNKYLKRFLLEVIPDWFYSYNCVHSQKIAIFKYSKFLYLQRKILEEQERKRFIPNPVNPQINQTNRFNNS
As to the kind of experiment: EMSA; 100 mM KCl; EMSA: 10 mM Tris pH 7.5, 1 mM EDTA, 0.1 mM DTT, 5% glycerol, 0.010 mg/ml BSA, 100 mM KCl (or 100 mM LiCl to limit G4), 4 nM probe, RT. The conditions noted are these: protein: recombinant; tags: N-terminal His; label: 32P (5' PNK); mixed G4 (100 mM KCl). Background: A gel shift assay detects complexes by their altered migration in electrophoresis.

Data set [2] concerns the target T1, His-Lia3. As to the kind of experiment: competition; 5X/20X vs G4-M1 probe; EMSA: 10 mM Tris pH 7.5, 1 mM EDTA, 0.1 mM DTT, 5% glycerol, 0.010 mg/ml BSA, 100 mM KCl (or 100 mM LiCl to limit G4), 4 nM probe, RT. The note with it: protein: recombinant; tags: N-terminal His; parallel intermolecular G4, 4 strands (100 mM KCl).
The next data set concerns the target T2, MBP-Lia3 (Tetrahymena thermophila, UniProt A3F815 1-322).
T2 sequence: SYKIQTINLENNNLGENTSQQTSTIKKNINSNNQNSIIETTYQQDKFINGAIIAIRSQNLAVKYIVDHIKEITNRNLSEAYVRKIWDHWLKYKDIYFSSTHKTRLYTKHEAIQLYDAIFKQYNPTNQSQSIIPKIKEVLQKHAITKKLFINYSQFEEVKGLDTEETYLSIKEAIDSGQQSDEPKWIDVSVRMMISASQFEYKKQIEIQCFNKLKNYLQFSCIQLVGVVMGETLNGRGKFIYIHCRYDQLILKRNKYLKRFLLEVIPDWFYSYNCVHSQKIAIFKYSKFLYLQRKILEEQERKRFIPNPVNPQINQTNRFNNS
As to the kind of experiment: competition; excess vs G4-M1 probe; 400 nM protein; EMSA: 10 mM Tris pH 7.5, 1 mM EDTA, 0.1 mM DTT, 5% glycerol, 0.010 mg/ml BSA, 100 mM KCl (or 100 mM LiCl to limit G4), 4 nM probe, RT. The note with it: protein: recombinant; tags: N-terminal MBP-TEV-His; linear, no G4.

B1: G4 Tetrahymena telomere (structured_DNA)
DNA: TTGGGGTTGGGGTTGGGGTTGGGG
What is called Kd is the free concentration of one partner at which half of the binding sites on the other are occupied at equilibrium, for simple one-to-one binding. On to B1, for which the Kd in the data set with His-Lia3 [1] was 11.5 µM.

B2: G4-M2 (structured_DNA)
DNA: TTCAAGACAAAAAAAGGGGGATGGGTTTCC
On to B2, for which, in the data set with His-Lia3 [2], the binding result is reported as “binds”.

B3: M1-C3 (C3G2 mutant) (ssDNA)
DNA: TTTATTAATCAAAAACCCGGTAAATAATAA
Consider B3, for which the binding result in the data set with MBP-Lia3 is “no binding”.
